# Assay results reported in patent US20150017657A1, “ASSAY AND METHOD FOR IDENTIFYING COMPOUNDS THAT INHIBIT EXCITOTOXIC SIGNALS” (THE UNIVERSITY OF SYDNEY, priority 2011, published 2015).
# No end group written: not given here.
# Biological target: T1, Tau protein bound to Fyn protein (N-GFP-Fyn / C-GFP-Tau) (Homo sapiens, UniProt P06241)
# T1 construct: A nucleic acid encoding amino acids 83-145 of human Fyn was cloned into the N-GFP-pLVX vector; N-GFP (GFP aa 1-158) with GGSG linker and XbaI-encoded SR; expressed in transfected cells; host or cells: COS-7 cells, lentiviral pLVX constructs, stably expressed
# T1 sequence (P06241 83-145): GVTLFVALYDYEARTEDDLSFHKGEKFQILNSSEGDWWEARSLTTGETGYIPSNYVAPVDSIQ
# Test: split-GFP reassembly assay of Tau/Fyn binding in transfected COS-7 cells
# Type: cell-based
# Settings: 200 nM peptide, 1 hour at 37 degree Celsius; COS-7 cells expressing N-GFP-Fyn and N-terminal C-GFP-Tau; plate reader or fluorescence microscope (FIG. 5)
# Excerpt: Lentiviruses containing either combination of constructs, i.e. N-terminal C-GFP fused to Tau and N-GFP fused to Fyn, or C-terminal C-GFP fused to Tau and N-GFP fused to Fyn, were then generated using standard protocols (e.g. Krupka et al., Plasmid, 2010, 63(3):155-60) and stably expressed in COS-7 cells.
# However, transfection of constructs encoding N-terminal C-GFP fused to Tau and N-GFP fused to Fyn did result in green fluorescing cells (FIG. 5).
# Cells generated by the methods described in Example 1 were grown till confluent in 96-well plates and then the fluorescence was measured in a 96-well plate reader (Omega, BMG) or by via fluorescence microscope. The cells were then incubated with 200 nM of the Tat-7PXXP peptide for 1 hour at 37 degree Celsius. The fluorescence was again measured in a 96-well plate reader (Omega, BMG) or via a fluorescence microscope.
sequence,measurement,value
YGRKKRRQRRRTPPKSPSS [Tat-7PXXP],fluorescence of the transfected cells,negligible
